Experimental data from the supplement of paper PMC10266784.

B1: library; numbered along this chain (parent)
chain: MAAAAAAAAEQQSSNGPVKKSMREKAVERRSVNKEHNSNFKAGYIPIDEDRLHKTGLRGRKGNLAICVIILLFILAVINLIITLVIWAVIRIGPNGCDSMEFHESGLLRFKQVSDMGVIHPLYKSTVGGRRNENLVITGNNQPIVFQQGTTKLSVENNKTSITSDIGMQFFDPRTQNILFSTDYETHEFHLPSGVKSLNVQKASTERITSNATSDLNIKVDGRAIVRGNEGVFIMGKTIEFHMGGNMELKAENSIILNGSVMVSTTRLPSSSSGDQLGSGDWVRYKLCMCADGTLFKVQVTSQNMGCQISDNPCGNTH

Variants of: B1
Assay: SGCB cell-surface expression functional score (HA stain, bin4 vs bin1, normalised to synonymous) (log10 ratio); higher = more cell-surface SGCB (functional)
Summary of the method: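 Sorting and sequencing yield the functional score, defined as the log ratio of a variant's highest-bin frequency to its lowest-bin frequency, with the median taken over codons and replicate transductions. The libraries, codon-saturation sets of HA-tagged, YFP-fused human beta-sarcoglycan, went into HEK293 cells stably carrying alpha-, gamma- and delta-sarcoglycan by duplicate lentiviral transduction at MOI <0.1. Cells were stained on ice with Alexa Fluor 647 anti-HA, fixed and split into four 5% intensity bins, and synonymous variants were scaled per section to mean 0, SD 0.5.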

SGCB cell-surface expression functional score (log10): each site, then its substitutions
M235: Y 0.92; H 0.69; I 0.26; P -0.94; E 0; V 0.18; R 0.56; S 0.53; A 0.36; N 1.02; Q 0.65; C 0.86; D -0.066; L 0.66; T 0.37; K 0.78; W 0.91; G 0.75; F 0.84
G245: T 0.57; L 0.83; Q 0.99; R 0.49; D 0.77; H 0.52; E 1.16; S 0.78; I 0.57; M 1.44; P 0.4; K 0.91; A 0.6; Y 1.09; C 0.61; F -0.16; W 0.92; V -0.07; N 0.59
G236: A 0.11; M -2.18; F -1.96; Q 0.48; I -1.64; K -2; Y -1.44; W -2.11; R -1.3; S -0.08; T -0.62; E -1.08; N -1.82; D -0.43; V -1.25; C -1.64; P -1.06; H -1.67; L -1.75
M247: R -0.83; Q -0.04; E -0.44; I 0.34; L 0.8; S 0.26; T -0.51; P -1.08; F 1.03; G 0.38; D -1.1; A 0.65; Y 1.22; V 0.47; N -0.35; K -1.56; H 0.26; W -1.52; C 0.91
E240: F 0.84; R 0.44; C 0.37; M 1.09; K 0.46; N 0.97; D 0.58; Q 1; H 0.77; V 0.99; S 0.98; L 0.37; W 0.422; G 0.76; P -0.9; Y 0.83; I 0.23; A 0.93; T 1
F233: W 0.09; K 0.34; L 0.47; A 0.97; Q 0.77; R 0.69; M 1.15; C -0.13; E 0.63; N 0.87; H 0.36; S 0.62; I 0.99; P -1.53; Y 0.56; V 0.18; D -0.146; T 0.7; G -0.1
M243: N 1.08; R -0.97; Q 0.88; W -0.253; D -0.38; T 0.83; A 0.83; K -0.64; E 0.01; V 0.49; S 0.81; H 0.52; F 1.18; L 0.43; G 0.64; P 0.21; Y 0.13; I 0.18; C 0.71
K237: G 0.05; C 0.61; Q -0.79; L 0.6; R 0.73; M 0.8; A 0.85; F 0.86; I 0.24; E 0.47; P 0.32; N 0.32; V 0.29; H -0.04; W 0.453; D 0.73; S 0.2; Y 0.48; T 0.58
K250: A 0.91; D 0.83; C 0.5; E 0.06
I234: C 0.01; H -1.04; E -1.49; S -0.92; T 0.09; N -1.67; K -1.32; A -0.02; G -1; F 1.03; M 0.48; P -0.22; Y -0.62; V 0.49; D -0.5; Q -1.65; L 0.43; R -1.51; W 0.32
V232: Q -1.69; Y -1.09; P -0.64; S -0.67; T 0; W -1.85; R -1.12
H242: S 0.93; F 0.89; I 0.92; A 0.4; G 0.87; E 0.36; D 0.83; Y 0.47; N 0.39; L 0.7; P -0.67; T 0.66; W 0.6; Q 0.68; K 1.04; V 0.71; M 0.2; C 1; R 0.39
F241: T -0.91; P -0.89; Q -1.74; H -2.08; L 0.35; M 0.82; R -1.19; I 0.2; K -1.17; D -0.57; W 1.2; S -1.23; N -0.57; Y -0.82; V -0.37; A 0.14; E 0.03; C 0.62; G -0.98
N246: S -0.19; V 0.39; F -1.49; M 0.42; R 0.2; A 0.82; Q 0.45; I 0.32; K -0.01; P 0.63; D 0.51; T 0.94; H 0.84; C -0.02; G 0.45; Y 0.19; E -0.206; L 0.49; W -0.217
I239: R -1.04; F -0.45; T 0.15; E 0; P -1.08; A 0.09; W -0.02; V 0.12; C 0.46; M 0.83; G -0.41; Y -1.52; N -1.44; S -1.1; K -1.38; H -0.15; D -1.13; Q -1.16; L 0.49
L249: Q -0.07; T 0; D -1.06; C 0.2; H -1.14; V 0.75; G 0.21; F 0.71; M -0.1; Y 0.23; W 0.63; I 0.85; R -0.27; A 0.55; K -1.29; E -0.69; N -0.2; P -0.41; S 0.16
E248: D 0.58; S 0.4; H 0.87; V 0.52; G 0.62; L 0.48; W 0.116; K 0.73; A 0.29; Y 0.41; Q -0.13; P 0.43; C -0.97; I 0.78; F 0.95; T 0.54; M 0; R 0.67; N 0.44
G244: V 0.12; P 0.1; S 0.77; C 0.21; I -0.24; T 0.66; W 0.55; Y -0.22; L 0.86; D 0.99; R 0.41; K 0.23; E 0.47; M 1.17; H 0.75; N 0.77; A 0.67; Q 0.86; F 1
T238: G 0.71; D 0.72; V 0.95; N 0.67; C 0.64; L 0.67; M 0.93; Y -0.01; I 0.62; W -0.07; K 0.3; E 0.87; R 0.94; F 0.86; A 0.6; H 0.24; Q 0.63; S 0.64; P -0.64
